Tests used:
[1] = system: T1, H1.0K180me2 peptide AKPVKASKPKKAKPVK(me2)PK
T1 sequence: AKPVKASKPKKAKPVKPK

[2] = system: T2, unmodified H1.0 peptide AKPVKASKPKKAKPVKPK
T2 sequence: AKPVKASKPKKAKPVKPK

| Substance | in vitro methylation, LC-MS: further methylated product H1.0K166me1K180me2 [1] | in vitro methylation, LC-MS: further methylated product H1.0K174me1K180me3 [1] | in vitro methylation, LC-MS: further methylated product H1.0K174me3K175me3K177me1K180me2 [1] | in vitro methylation, LC-MS: share of peptides further methylated [1] | in vitro methylation with tritium-labeled methyl donor, autoradiography [2] | in vitro methylation, LC-MS spectral counts: share of peptides dimethylated at K180 [2] |
| --- | --- | --- | --- | --- | --- | --- |
| G9A methyltransferase (recombinant, NEB M0235S) | 1.27% of the total peptide in the reaction | 1.06% of the total peptide in the reaction | 0.35% of the total peptide in the reaction | only 2.64% of peptides are further methylated | The appearance of a band at 4 kDa shows that The G9A methyltransferase capable of methylating H1.0 peptide | 99.9% of all peptides |
| GLP methyltransferase (recombinant, Cayman Chemical 10755) |  |  |  | 1.02% of peptides are further methylated |  | 96.6% of all peptides |
